Test results published in paper PMC2662417, “Pxmp2 Is a Channel-Forming Protein in Mammalian Peroxisomal Membrane” (PLoS ONE, 2009).

Assays:
[1] = target: the molecule itself; assay: SEC + cross-linking; purified native Pxmp2 in detergent; Superdex 200 size-exclusion chromatography; protein eluted from the column treated with Sulfo-EGS, immunoblot with anti-Pxmp2; details in Text S1
[2] = target: the molecule itself; assay: cross-linking; Genapol X-080-solubilised proteins (about 50 ug) of the PPF of Sf9 cells expressing His-tagged Pxmp2; DSS at 0.1, 0.2, 0.5 and 1.0 mM, 30 min at room temperature; SDS-PAGE, immunoblot with anti-His-tag antibodies

B1: native Pxmp2 purified from mouse liver peroxisomes (natural protein, mouse (endogenous in mouse liver), UniProt P42925 1-194, looked up)
chain: MAPAASRLRVESELGSLPKRALAQYLLLLKLYPVLTKAVSSGILSALGNLLAQTIEKKQRKDSRLLEVSGLLRYLVYGLFVTGPLSHYLYLFMEYSVPPEVPWASVKRLLLDRLFFAPTFLLLFFFVMNLLEGKNVSVFVAKMRSGFWPALQMNWRMWTPLQFININYVPLQFRVLFANMAALFWYAYLASLGK
notes: Pxmp2, peroxisomal membrane protein 2 (22 kDa), mouse; native protein isolated from liver peroxisomes; also called PMP22; purified Pxmp2; source: purified from mouse liver peroxisomes (conventional chromatography: ion-exchange and size-exclusion steps, in detergent)
Q: Which “stoichiometry N” value [1] does the source give for B1 here?
A: 3

B2: His-tagged Pxmp2 protein (natural protein, mouse, UniProt P42925 1-194, looked up)
chain: B1 chain
notes: Pxmp2, mouse, recombinant with a His tag (about 27 kDa); also called mouse recombinant Pxmp2
Q: With B2 as the protein, how does the “stoichiometry N” value [2] read?
A: 3
